Measured values from publication PMC12182893, “Dimeric DNA Aptamers for the Spike Protein of SARS‐CoV‐2 Derived from a Structured Library with Dual Random Domains”.
Where two headings read alike, the source gives them in different places.

Key:
SARS-CoV-1 spike protein = SARS-CoV-1 spike protein (SARS-CoV-1, UniProt P59594 14-1195); assay: dot blot (filter binding); conditions: protein: recombinant; chain copies: 3; label: radiolabel (32P)
[1] = biological target: Influenza hemagglutinin (HA) (influenza A/California/04/2009 (CAL 09), UniProt C3W5S1 18-530); assay: dot blot (filter binding); conditions: protein: recombinant; chain copies: 3; label: radiolabel (32P)
229E RBD = 229E RBD (seasonal coronavirus 229E, UniProt P15423 293-435); assay: dot blot (filter binding); 10 nM protein; conditions: protein: recombinant; label: radiolabel (32P); 3-way junction, predicted
HKU1 RBD = HKU1 RBD (seasonal coronavirus HKU1, UniProt Q5MQD0 325-607); assay: dot blot (filter binding); 10 nM protein; conditions: protein: recombinant; label: radiolabel (32P); 3-way junction, predicted
NL63 RBD = NL63 RBD (seasonal coronavirus NL63, UniProt Q6Q1S2 481-616); assay: dot blot (filter binding); 10 nM protein; conditions: protein: recombinant; label: radiolabel (32P); 3-way junction, predicted
OC43 RBD = OC43 RBD (seasonal coronavirus OC43, UniProt P36334 333-607); assay: dot blot (filter binding); 10 nM protein; conditions: protein: recombinant; label: radiolabel (32P); 3-way junction, predicted
alpha-thrombin [2] = biological target: alpha-thrombin (human, UniProt P00734;P00734 328-363;364-622); conditions: protein: commercial; copies: 1;1; label: radiolabel (32P); 3-way junction, predicted
alpha-thrombin [3] = biological target: alpha-thrombin (human, UniProt P00734;P00734 328-363;364-622); assay: dot blot (filter binding)

Measured: binding result

B1: DRDA8 (structured_DNA)
DNA: TTACGTCAAGGTGTCACTCCTGTGGGTGGAATGGGGAAGGGAGTGTTTTTTTTTGTGAGATGTGTGGTGTGGAATGGGGAAGCATCTCTTTGGCGTG
not listed: alpha-thrombin [3]
no binding: all other assays above

B2: DRDA10 (structured_DNA)
DNA: TTACGTCAAGGTGTCACTCCTGTGGGTGGAATGGGGAAGGGAGTGTTTTTTTTTTCGGAGATGTGTGTGTGAAACAGTGGGAAGCATCTCTTTGGCGTG
no binding: alpha-thrombin [3]
